The source of these data is PMC10190621 (Advanced Science, 2023).

The experiment deals with T1, His-tagged KEAP1 (C-terminal amino acids 312-624, containing the Kelch domain) (human, UniProt Q14145 312-624).
T1 construct: plasmid by Tsingke Biotechnology; also called His-KEAP1; Kelch domain of KEAP1; source: E. coli BL21 (DE3), purified (Ni-NTA column, gel filtration)
The experiment in a line: pull-down; His pulldown, competition: 10 µg His-KEAP1 on His immunomagnetic beads, mixed with NRF2 and 5 or 10 µg DDRGK1 protein at 4 °C overnight, washed three times, immunoblot. The conditions noted are these: both partners purified.

T1 sequence (Q14145 312-624): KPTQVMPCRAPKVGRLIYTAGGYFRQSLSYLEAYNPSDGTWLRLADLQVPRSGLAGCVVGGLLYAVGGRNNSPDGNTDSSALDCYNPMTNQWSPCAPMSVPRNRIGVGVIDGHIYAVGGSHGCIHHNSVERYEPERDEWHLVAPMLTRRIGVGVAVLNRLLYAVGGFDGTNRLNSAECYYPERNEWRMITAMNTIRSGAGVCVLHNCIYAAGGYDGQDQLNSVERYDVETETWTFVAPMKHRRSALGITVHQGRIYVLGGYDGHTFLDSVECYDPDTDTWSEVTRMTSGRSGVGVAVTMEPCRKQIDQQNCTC

B1: GST-tagged NRF2 (N-terminal amino acids 1-84, containing domains interacting with KEAP1) (domain or fragment, human, UniProt Q16236 1-84, looked up)
chain: MMDLELPPPGLPSQQDMDLIDILWRQDIDLGVSREVFDFSQRRKEYELEKQKKLEKERQEQLQKEQEKAFFAQLQLDEETGEFL
notes: N-terminal domain (residues 1-84) of human NRF2; plasmid by Tsingke Biotechnology; also called GST-NRF2; NRF2 protein; source: E. coli BL21 (DE3), purified (GSH column, gel filtration)
Take B1: the binding result is reported as “binds”.
